Results taken from patent US20120183545A1 (Merck KGaA, published 2012).
Each block holds one molecule with its values, some of them ahead of it.

B2: human CD20 antigen on Daudi lymphoma cells (other, UniProt P11836 1-297, looked up)
chain: MTTPRNSVNGTFPAEPMKGPIAMQSGPKPLFRRMSSLVGPTQSFFMRESKTLGAVQIMNGLFHIALGGLLMIPAGIYAPICVTVWYPLWGGIMYIISGSLLAATEKNSRKCLVKGKMIMNSLSLFAAISGMILSIMDILNIKISHFLKMESLNFIRAHTPYINIYNCEPANPSEKNSPSTQYCYSIQSLFLGILSVMLIFAFFQELVIAGIVENEWKRTCSRPKSNIVLLSAEEKKEQTIEIKEEVVGLTETSSQPKNEEDIEIIPIQEEEEEETETNFPEPPQDQESSPIENDSSP
notes: whole, on cells; also called Bp35

Assays:
[1] = target: T1, human CD20 antigen on Daudi lymphoma cells (human) (UniProt P11836); assay: flow cytometry on Daudi cells; antibody at 0.313 g/ml as printed
T1 sequence (looked up): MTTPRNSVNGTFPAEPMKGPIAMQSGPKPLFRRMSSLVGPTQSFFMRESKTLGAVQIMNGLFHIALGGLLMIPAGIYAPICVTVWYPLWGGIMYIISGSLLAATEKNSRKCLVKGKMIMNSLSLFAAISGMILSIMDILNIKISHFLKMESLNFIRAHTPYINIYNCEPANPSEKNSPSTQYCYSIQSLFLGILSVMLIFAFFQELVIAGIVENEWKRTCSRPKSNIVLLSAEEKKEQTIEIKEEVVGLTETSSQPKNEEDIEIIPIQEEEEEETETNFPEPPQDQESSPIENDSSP

[2] = target: T1, human CD20 antigen on Daudi lymphoma cells (human); assay: flow cytometry on Daudi cells; antibody at 2.5 g/ml as printed
[3] = target: T1, human CD20 antigen on Daudi lymphoma cells (human); assay: flow cytometry on Daudi cells; antibody at 5 g/ml as printed
[4] = target: T1, human CD20 antigen on Daudi lymphoma cells (human); assay: flow cytometry on Daudi cells; antibody at 0.156 g/ml as printed
[5] = target: T1, human CD20 antigen on Daudi lymphoma cells (human); assay: flow cytometry on Daudi cells; antibody at 0.625 g/ml as printed
[6] = target: T1, human CD20 antigen on Daudi lymphoma cells (human); assay: flow cytometry on Daudi cells; antibody at 0.078 g/ml as printed
[7] = target: T1, human CD20 antigen on Daudi lymphoma cells (human); assay: flow cytometry on Daudi cells; antibody at 10 g/ml as printed
[8] = target: T1, human CD20 antigen on Daudi lymphoma cells (human); assay: flow cytometry on Daudi cells; antibody at 1.25 g/ml as printed
[9] = target: high affinity IL-2R on a mouse cell line (CTLL-2) (mouse) (UniProt P01590); assay: cell-based or functional assay
IL-2 Rβ on TF-1β cells = IL-2 Rβ on TF-1β cells (UniProt P14784); assay: cell-based or functional assay
[10] = target: B2; assay: flow cytometry on Daudi cells, FIG. 6 Panel A
Protocol: FIG. 6 illustrates the anti-CD20 binding activity of CD20-binding polypeptide compositions and immunocytokines (ICs). Human Daudi lymphoma cells were incubated with varying concentrations of polypeptide compositions and ICs and relative binding to the cells was assessed by flow cytometry, as described in Example 2.
(§1) Approximately 10⁶ Daudi cells were used with various concentrations of antibody or antibody-IL2 fusion protein in a 100 μl volume, for each sample tested.

[11] = target: T2, Leu16VhY/VkZ-IL2 (anti-CD20 PC2) (human, UniProt P60568 21-153); assay: flow cytometry on Daudi cells
T2 construct: Antibody-IL2 fusion (immunocytokine), glycosylated; also called AbVhY/VkZ-IL2; Ab(VhY/VkZ)-IL2; not shown: human kappa light chain constant region
Protocol: as §1

Sequence of high affinity IL-2R on a mouse cell line (CTLL-2) (mouse) (P01590 22-268, chain 1 of 3): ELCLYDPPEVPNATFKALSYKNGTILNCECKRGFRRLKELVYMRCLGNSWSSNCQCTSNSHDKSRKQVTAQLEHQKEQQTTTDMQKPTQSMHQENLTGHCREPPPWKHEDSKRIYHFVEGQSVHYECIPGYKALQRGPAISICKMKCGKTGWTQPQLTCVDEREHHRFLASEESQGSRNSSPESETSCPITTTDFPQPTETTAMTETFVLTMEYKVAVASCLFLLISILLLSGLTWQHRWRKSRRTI
Sequence of high affinity IL-2R on a mouse cell line (CTLL-2) (mouse) (P16297 27-539, chain 2 of 3, further chain): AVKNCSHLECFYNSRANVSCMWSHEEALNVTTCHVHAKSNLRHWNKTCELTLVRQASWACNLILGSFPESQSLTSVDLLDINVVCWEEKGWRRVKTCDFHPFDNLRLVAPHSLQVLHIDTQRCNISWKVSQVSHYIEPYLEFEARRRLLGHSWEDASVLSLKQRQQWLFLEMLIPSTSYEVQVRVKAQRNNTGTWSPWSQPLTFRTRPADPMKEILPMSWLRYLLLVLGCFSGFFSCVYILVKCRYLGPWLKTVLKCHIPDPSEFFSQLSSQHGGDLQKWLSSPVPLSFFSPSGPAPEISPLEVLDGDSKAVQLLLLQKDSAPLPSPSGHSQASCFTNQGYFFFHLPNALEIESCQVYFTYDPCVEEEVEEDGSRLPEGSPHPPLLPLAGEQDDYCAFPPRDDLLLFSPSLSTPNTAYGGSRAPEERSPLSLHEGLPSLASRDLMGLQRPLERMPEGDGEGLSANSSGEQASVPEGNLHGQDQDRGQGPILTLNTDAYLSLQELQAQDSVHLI
Sequence of high affinity IL-2R on a mouse cell line (CTLL-2) (mouse) (P34902 23-369, chain 3 of 3, further chain): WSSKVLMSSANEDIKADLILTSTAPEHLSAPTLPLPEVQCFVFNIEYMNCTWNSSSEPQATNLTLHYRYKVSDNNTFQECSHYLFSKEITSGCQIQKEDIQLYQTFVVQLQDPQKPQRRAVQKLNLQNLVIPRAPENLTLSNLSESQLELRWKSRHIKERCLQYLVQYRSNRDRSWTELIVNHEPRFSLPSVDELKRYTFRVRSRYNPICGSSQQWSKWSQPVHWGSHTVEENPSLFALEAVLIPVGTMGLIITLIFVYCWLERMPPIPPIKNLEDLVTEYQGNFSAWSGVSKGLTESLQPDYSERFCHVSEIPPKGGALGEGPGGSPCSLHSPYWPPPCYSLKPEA
Sequence of IL-2 Rβ on TF-1β cells (P14784 27-551): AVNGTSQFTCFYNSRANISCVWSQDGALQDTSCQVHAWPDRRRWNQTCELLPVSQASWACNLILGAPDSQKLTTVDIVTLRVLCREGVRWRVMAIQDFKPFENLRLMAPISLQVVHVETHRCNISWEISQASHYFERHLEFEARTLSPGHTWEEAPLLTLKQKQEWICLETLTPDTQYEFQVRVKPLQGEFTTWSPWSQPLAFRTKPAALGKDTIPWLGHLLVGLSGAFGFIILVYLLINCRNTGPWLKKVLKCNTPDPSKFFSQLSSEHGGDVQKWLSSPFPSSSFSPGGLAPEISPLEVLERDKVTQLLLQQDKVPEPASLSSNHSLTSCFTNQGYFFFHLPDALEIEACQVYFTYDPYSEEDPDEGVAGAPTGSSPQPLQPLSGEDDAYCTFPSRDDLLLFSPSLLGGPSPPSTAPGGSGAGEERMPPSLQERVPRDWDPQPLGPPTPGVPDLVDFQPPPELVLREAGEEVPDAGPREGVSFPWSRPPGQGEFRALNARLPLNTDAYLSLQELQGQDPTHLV
T2 sequence (P60568 21-153 limits assumed): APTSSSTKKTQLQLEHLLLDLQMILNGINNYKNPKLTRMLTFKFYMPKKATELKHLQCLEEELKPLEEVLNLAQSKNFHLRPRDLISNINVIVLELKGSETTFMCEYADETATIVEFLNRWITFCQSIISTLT

Molecule: 2B8-IL2 fusion protein
- mean fluorescence intensity [1]: 147
- mean fluorescence intensity [2]: 513
- mean fluorescence intensity [3]: 720
- mean fluorescence intensity [4]: 85.3
- mean fluorescence intensity [5]: 229
- mean fluorescence intensity [6]: 52.1
- mean fluorescence intensity [7]: 857
- mean fluorescence intensity [8]: 369

Molecule: KS-IL2, anti-EpCAM antibody fused to human IL-2 at the C-terminus of the antibody heavy chains (from UniProt P60568 21-153)
- CTLL-2 ED50 [9]: 1.71 ng/mL
- TF-1β ED50 (IL-2 Rβ on TF-1β cells): 0.51 ng/mL

Molecule: B2
- binding result [11]: binds

Further lines, results first:

- CTLL-2 ED50 [9]: 0.65 ng/mL
Molecule: human rIL-2 (from UniProt P60568 21-153) (ligand)

- binding result [10]: binds
B1: Leu16VhY/VkZ (anti-CD20 PC1) (antibody, IgG1, V domains shown)
VH: EVQLQQSGAELKKPGASVKVSCKASGYTFTSYNMHWVKQTPGQGLEWIGAIYPGNGDTSYNQKFKGKTTLTADKSSSTAYMELSSLRSEDTAVYYCARSNYYGSSYWFFDVWGTGTTVTVSS
VL: DIVLTQSPAIITASPGEKVTMTCRASSSVNYMDWYQKKPGSSPKPWIYATSNLASGVPSRFSGSGSGTTYSMTISSLEAEDAATYYCQQWSFNPPTFGGGTKLEIK
notes: Chimeric IgG1/kappa antibody; also called DILeu16; DI-Leu16 antibody; not shown: human kappa light chain constant region
